Where a chain is given by its changes, count along the chain named. “And” between values parts separate entries of the source, which are not always exact repeats. Equal entries are not always repeated.

We go through two molecules from PMC8580317.

For one test, the target named is FZD5 CRD (UniProt Q13467). The settings on record: cited from earlier work.
In test [1] the target is Nluc-FZD6-K466K-Cy3 sensor (human) (UniProt O60353).
In test [2] the target is T1, Nluc-FZD6-Q171K-Cy3 sensor (human) (UniProt O60353).
T1 sequence (chain, trans-cyclooct-2-ene-L-lysine (TCO*K) at 171, labelled with Tet-Cy3): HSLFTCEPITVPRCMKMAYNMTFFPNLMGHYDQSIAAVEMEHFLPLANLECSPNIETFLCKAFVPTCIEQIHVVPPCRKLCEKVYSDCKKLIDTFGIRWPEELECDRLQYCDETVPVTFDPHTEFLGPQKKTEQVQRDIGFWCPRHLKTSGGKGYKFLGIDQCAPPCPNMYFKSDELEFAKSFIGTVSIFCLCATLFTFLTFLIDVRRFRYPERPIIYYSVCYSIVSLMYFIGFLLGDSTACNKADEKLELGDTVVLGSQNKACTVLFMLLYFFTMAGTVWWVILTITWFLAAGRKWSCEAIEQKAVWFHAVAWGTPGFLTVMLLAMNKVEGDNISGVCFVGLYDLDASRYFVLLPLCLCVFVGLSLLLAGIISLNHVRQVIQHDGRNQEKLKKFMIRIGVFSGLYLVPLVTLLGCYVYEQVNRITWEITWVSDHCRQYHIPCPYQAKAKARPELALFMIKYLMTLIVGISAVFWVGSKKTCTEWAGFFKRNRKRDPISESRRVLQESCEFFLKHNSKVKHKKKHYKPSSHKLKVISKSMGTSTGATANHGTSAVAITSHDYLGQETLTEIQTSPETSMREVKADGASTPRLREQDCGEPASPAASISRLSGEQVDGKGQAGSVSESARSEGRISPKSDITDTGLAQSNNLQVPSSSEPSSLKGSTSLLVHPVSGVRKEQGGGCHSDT

The target in test [3] is Nluc-FZD5-Q493K-Cy3 sensor (human) (UniProt Q13467).
In test [4] the target is Nluc-FZD6-K466K-Cy3 sensor (human) (UniProt O60353). The source holds these as a separate data set.
The target of test [5] is T2, Nluc-FZD6-K466K-Cy3 dimer mutant (D365A/R368A/Y369A) (human) (UniProt O60353).
T2 sequence (chain, trans-cyclooct-2-ene-L-lysine (TCO*K) at 466, labelled with Tet-Cy3): T1 sequence (chain, trans-cyclooct-2-ene-L-lysine (TCO*K) at 171, labelled with Tet-Cy3) with K153Q, D347A, R350A, Y351A

Test [6] deals with Nluc-FZD6-K466K-Cy3 sensor (human) (UniProt O60353). This is another data set of the same source.

Broadly, the Kd is the free concentration of one partner at which half of the binding sites on the other are occupied at equilibrium, for simple one-to-one binding. Turning to WNT-3A (from UniProt P56704), in the test with FZD5 CRD, the Kd was 3.1 nM.

B1: recombinant WNT-5A (ligand)
chain: IIGAQPLCSQLAGLSQGQKKLCHLYQDHMQYIGEGAKTGIKECQYQFRHRRWNCSTVDNTSVFGRVMQIGSRETAFTYAVSAAGVVNAMSRACREGELSTCGCSRAARPKDLPRDWLWGGCGDNIDYGYRFAKEFVDARERERIHAKGSYESARILMNLHNNEAGRRTVYNLADVACKCHGVSGSCSLKTCWLQLADFRKVGDALKEKYDSAAAMRLNSRGKLVQVNSRFNSPTTQDLVYIDPSPDYCVRNESTGSLGTQGRLCNKTSEGMDGCELMCCGRGYDQFKTVQTERCHCKFHWCCYVKCKKCTEIVDQFVCK
B1: the fitted maximal ∆BRET amplitude of the Cy3-labelled sensor upon WNT-5A (3 μg/ml), HEK293T cells in test [1] is -26.4%; in test [2] it was -11.6%. Also, the maximal ∆BRET amplitude of the Cy3-labelled sensor upon WNT-5A (3 μg/ml), HEK293T cells in test [3] is -15.6%. Further, the EC50 of the WNT-5A-induced BRET signal of the sensor (concentration-response curve), HEK293T cells in test [4] was 22.4 nM and 850 ng/ml. The fitted plateau of the WNT-5A-induced BRET response of the sensor, HEK293T cells in test [5] is -10.2%. Moreover, the fitted plateau of the WNT-5A-induced BRET response of the sensor (experiment beside the dimer mutant), HEK293T cells in test [6] was -19.7%.
